# Experimental data reported in IntAct's records for PubMed 29039417.
# B1: BBSome complex member BBS2 (Homo sapiens), Q9BXC9 (parent)
# chain: MLLPVFTLKLRHKISPRMVAIGRYDGTHPCLAAATQTGKVFIHNPHTRNQHVSASRVFQSPLESDVSLLSINQAVSCLTAGVLNPELGYDALLVGTQTNLLAYDVYNNSDLFYREVADGANAIVLGTLGDISSPLAIIGGNCALQGFNHEGSDLFWTVTGDNVNSLALCDFDGDGKKELLVGSEDFDIRVFKEDEIVAEMTETEIVTSLCPMYGSRFGYALSNGTVGVYDKTSRYWRIKSKNHAMSIHAFDLNSDGVNELITGWSNGKVDARSDRTGEVIFKDNFSSAIAGVVEGDYRMDGHIQLICCSVDGEIRGYLPGTAEMRGNLMDTSAEQDLIRELSQKKQNLLLELRNYEENAKAELASPLNEADGHRGIIPANTRLHTTLSVSLGNETQTAHTELRISTSNDTIIRAVLIFAEGIFTGESHVVHPSIHNLSSSICIPIVPPKDVPVDLHLKAFVGYRSSTQFHVFESTRQLPRFSMYALTSLDPASEPISYVNFTIAERAQRVVVWLGQNFLLPEDTHIQNAPFQVCFTSLRNGGHLHIKIKLSGEITINTDDIDLAGDIIQSMASFFAIEDLQVEADFPVYFEELRKVLVKVDEYHSVHQKLSADMADHSNLIRSLLVGAEDARLMRDMKTMKSRYMELYDLNRDLLNGYKIRCNNHTELLGNLKAVNQAIQRAGRLRVGKPKNQVITACRDAIRSNNINTLFKIMRVGTASS
# partner: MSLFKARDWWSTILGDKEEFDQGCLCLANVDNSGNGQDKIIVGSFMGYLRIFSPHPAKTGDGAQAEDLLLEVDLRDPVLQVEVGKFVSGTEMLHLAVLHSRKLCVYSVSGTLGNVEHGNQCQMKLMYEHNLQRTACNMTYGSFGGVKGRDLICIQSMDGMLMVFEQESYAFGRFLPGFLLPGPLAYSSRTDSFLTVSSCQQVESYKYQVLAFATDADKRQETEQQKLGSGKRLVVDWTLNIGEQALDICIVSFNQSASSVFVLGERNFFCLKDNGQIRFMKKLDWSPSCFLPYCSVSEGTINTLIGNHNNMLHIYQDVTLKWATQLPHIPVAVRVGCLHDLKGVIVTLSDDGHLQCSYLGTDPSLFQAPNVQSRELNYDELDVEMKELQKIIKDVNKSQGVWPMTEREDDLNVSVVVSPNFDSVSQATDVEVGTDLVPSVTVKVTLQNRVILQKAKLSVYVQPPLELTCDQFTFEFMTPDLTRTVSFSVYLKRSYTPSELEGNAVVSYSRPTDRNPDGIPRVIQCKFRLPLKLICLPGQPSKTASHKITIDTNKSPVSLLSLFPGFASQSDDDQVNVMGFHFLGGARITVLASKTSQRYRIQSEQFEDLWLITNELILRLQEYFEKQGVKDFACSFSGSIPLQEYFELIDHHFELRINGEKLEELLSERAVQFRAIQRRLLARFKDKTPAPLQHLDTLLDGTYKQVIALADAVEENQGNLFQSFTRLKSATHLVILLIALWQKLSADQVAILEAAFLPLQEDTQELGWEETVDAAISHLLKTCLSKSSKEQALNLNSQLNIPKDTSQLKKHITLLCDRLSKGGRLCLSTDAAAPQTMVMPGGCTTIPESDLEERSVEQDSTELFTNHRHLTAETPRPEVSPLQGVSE
# Variants of: B1
# Details: with pthb1_human BBS9, Q3SYG4
row,Variant,effect of a mutation on the interaction
1,S440A,with no effect
2,S440E,with no effect
3,S440K,with no effect
4,V453K,disrupting interaction strength
5,V453A,with no effect
6,V453E,with no effect
7,L478E,disrupting interaction strength
8,L478K,disrupting interaction strength
9,L478A,disrupting interaction strength
10,L478P,disrupting interaction strength
11,Q477K,with no effect
12,Q477E,with no effect
13,Q477A,with no effect
14,H470A,with no effect
15,H470K,with no effect
16,H470E,with no effect
17,D450E,with no effect
18,D450A,with no effect
19,D450K,with no effect
20,D450L,disrupting interaction strength
21,S438K,with no effect
22,S438A,with no effect
23,S438E,with no effect
24,S438F,disrupting interaction strength
25,K458E,with no effect
26,K458A,with no effect
27,L457A,with no effect

row,Variant,effect of a mutation on the interaction
1,L457C,disrupting interaction strength
2,L457K,disrupting interaction strength
3,L457E,disrupting interaction strength
4,R480K,with no effect
5,R480E,with no effect
6,R480A,with no effect
7,P444A,with no effect
8,P444E,with no effect
9,P444K,with no effect
10,V471K,with no effect
11,V471A,disrupting interaction strength
12,V471E,with no effect
13,L455K,disrupting interaction strength
14,L455P,disrupting interaction strength
15,L455A,with no effect
16,Q468A,with no effect
17,Q468E,with no effect
18,Q468K,with no effect
19,T467K,with no effect
20,T467E,with no effect
21,T467A,with no effect
22,I445K,disrupting interaction strength
23,I445T,disrupting interaction strength
24,I445E,disrupting interaction strength
25,I445Q,disrupting interaction strength
26,I445A,disrupting interaction strength
27,M483I,disrupting interaction strength

row,Variant,effect of a mutation on the interaction
1,M483A,with no effect
2,M483E,disrupting interaction strength
3,M483K,disrupting interaction strength
4,P447A,with no effect
5,P447E,with no effect
6,P447K,with no effect
7,P479L,disrupting interaction strength
8,P479E,disrupting interaction strength
9,P479A,with no effect
10,P479K,with no effect
11,S466E,disrupting interaction strength
12,S466A,with no effect
13,S466K,with no effect
14,C442A,with no effect
15,C442E,with no effect
16,C442K,with no effect
17,V446K,with no effect
18,V446A,with no effect
19,V446E,with no effect
20,K449A,with no effect
21,K449R,disrupting interaction strength
22,K449E,with no effect
23,T475A,with no effect
24,T475E,with no effect
25,T475K,with no effect
